According to article PMC9427005 (Science (New York, N.y.), 2022):

B1: LY-CoV016 IgG1 (antibody, V domains shown)
VH: EVQLVESGGGLVQPGGSLRLSCAASGFTVSSNYMSWVRQAPGKGLEWVSVIYSGGSTFYADSVKGRFTISRDNSMNTLFLQMNSLRAEDTAVYYCARVLPMYGDYLDYWGQGTLVTVSS
VL: not shown
notes: IgG1
B2: CT-P59 IgG1 (antibody, V domains shown)
VH: QITLKESGPTLVKPTQTLTLTCSFSGFSLSTSGVGVGWIRQPPGKALEWLALIDWDDNKYHTTSLKTRLTISKDTSKNQVVLTMTNMDPVDTATYYCARIPGFLRYRNRYYYYGMDVWGQGTTVTVSS
VL: ELVLTQPPSVSAAPGQKVTISCSGSSSNIGNNYVSWYQQLPGTAPKLLIYDNNKRPSGIPDRFSGSKSGTSATLGITGLQTGDEADYYCGTWDSSLSAGVFGGGTELTVL
notes: IgG1
B3: REGN10987 IgG1 (antibody, V domains shown)
VH: QVQLVESGGGVVQPGRSLRLSCAASGFTFSNYAMYWVRQAPGKGLEWVAVISYDGSNKYYADSVKGRFTISRDNSKNTLYLQMNSLRTEDTAVYYCASGSDYGDYLLVYWGQGTLVTVSS
VL: QSALTQPASVSGSPGQSITISCTGTSSDVGGYNYVSWYQQHPGKAPKLMIYDVSKRPSGVSNRFSGSKSGNTASLTISGLQSEDEADYYCNSLTSISTWVFGGGTKLTVL
notes: IgG1
B4: LY-CoV555 IgG1 (antibody, V domains shown)
VH: QVQLVQSGAEVKKPGSSVKVSCKASGGTFSNYAISWVRQAPGQGLEWMGRIIPILGIANYAQKFQGRVTITADKSTSTAYMELSSLRSEDTAVYYCARGYYEARHYYYYYAMDVWGQGTAVTVSS
VL: not shown
notes: IgG1
B5: REGN10933 IgG1 (antibody, V domains shown)
VH: QVQLVESGGGLVKPGGSLRLSCAASGFTFSDYYMSWIRQAPGKGLEWVSYITYSGSTIYYADSVKGRFTISRDNAKSSLYLQMNSLRAEDTAVYYCARDRGTTMVPFDYWGQGTLVTVSS
VL: DIQMTQSPSSLSASVGDRVTITCQASQDITNYLNWYQQKPGKAPKLLIYAASNLETGVPSRFSGSGSGTDFTFTISGLQPEDIATYYCQQYDNLPLTFGGGTKVEIK
notes: IgG1
B6: COV2-2196 IgG1 (antibody, V domains shown)
VH: QMQLVQSGPEVKKPGTSVKVSCKASGFTFMSSAVQWVRQARGQRLEWIGWIVIGSGNTNYAQKFQERVTITRDMSTSTAYMELSSLRSEDTAVYYCAAPYCSSISCNDGFDIWGQGTMVTVSS
VL: not shown
notes: IgG1
B7: S2X35 IgG (antibody, V domains shown)
VH: QVQLVQSGAEVKKPGASVKVSCKASGYTFTNYGISWVRQAPGQGLEWMGWISAYKGNTNYAQKLQGRVTMTTDTSTSTAYMELRSLRSDDTAVYYCARPDYQVLGYDFWIGYYGMDVWGQGTTVIVSS
VL: QSVLTQPPSVSGAPGQRVTISCTGSSSNIGAGYDVHWYQQLPGTAPKLLIYGNTNRPSGVPDRFSGSKSGTSASLAITGLQAEDEADYYCQSYDSSLSGSEVVFGGGTKLTVL
B8: ADI-58125 IgG1 (antibody, V domains shown)
VH: EVQLVESGGGLVKPGGSLRLSCAASGFTFSSYYMNWVRQAPGKGLEWVSSISEDGYSTYYPDSLKGRFTISRDSAKNSLYLQMNSLRADDTAVYYCARDFSGHTAWAGTGFEYWGQGTLVTVSS
VL: QSVLTQPPSVSGAPGQRITISCTGSSSNIGAGYDVHWYQQLPGTAPKLLIYGSSSRNSGVPDRFSGSKSGTSASLAITGLQAEDEADYYCQSYDSSLSVLYTFGTGTKVTVL
notes: IgG1

molecular target: SARS-CoV-2 Wuhan-Hu-1 RBD for SPR binding assays (SARS-CoV-2 Wuhan-Hu-1 (NC_045512.2), UniProt P0DTC2); experiment: SPR; conditions: both partners purified

Binder | Kd | koff | kon
B1 | 13.8 nM |  | 
B2 | 0.066 nM | 0.000365 s⁻¹ | 5.54e+06 M⁻¹ s⁻¹
B3 | 12.4 nM |  | 
B4 | 1.48 nM | 0.00117 s⁻¹ | 792000 M⁻¹ s⁻¹
B5 | 0.689 nM | 0.00364 s⁻¹ | 5.29e+06 M⁻¹ s⁻¹
B6 | 1.09 nM | 0.0124 s⁻¹ | 1.14e+07 M⁻¹ s⁻¹
B7 | 0.268 nM | 0.000153 s⁻¹ | 570000 M⁻¹ s⁻¹
B8 | < 0.01 nM | 7.17e-08 s⁻¹ | 1.15e+06 M⁻¹ s⁻¹
